Test results: the domain aggregation screens of Martell et al. (2025)
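Further: 20 min heating vs room temperature control held 20 min.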

Assay: soluble fraction after stress (log2 fold change); higher = more stays soluble; pooled small domains, quantitative proteomics
Conditions: stress: 75 degC
With “HMTEFWTGPITTVTKANFADWTLDTNQDRITANVWLTRADSKGLFNITPGKETAFDIVDYLSPLDTEWA” the “soluble fraction (log2)” value was -0.209. With “HMTEGDRLARRILRLVRNKPNGYPEVELMKATVLDWNHFQRSISSLEMAGILERRDPGDGTPPVWVEKR” the “soluble fraction (log2)” value was -1.53. With “HMTEKIEWYKEVLDLEPNSKIFFPLAKMLEKEGELEEARRVLAEGVSRHEEFLEARLFYISVLSRL” the “soluble fraction (log2)” value was -0.301. In the case of “HMTENLELLATGSLWTEPDGSGKIISYLIPGLRVKKLETNGIFYKIQLQNGLIGWADQSLFTIAEPK”, the “soluble fraction (log2)” value is reported as -1.62. With “HMTENQKNIDLIKIVSLLVHAAKIDENYTNKEKELIINFINNFSKENKQNIKSSEILEEAEKYEK” the “soluble fraction (log2)” value was 0.132. With “HMTEPKRIVDHWQPSDDVYDILRMSHIDLDFARSLLPEFIVYWKDSSQTHTSWNSKFLQHAKYHWAKRHQL” the “soluble fraction (log2)” value was -2.27. For “HMTEPLTKREKEVLLLLPRGLTAKAMASELFLTEATIKSHLAAIFRKFKVVNRTQAIAIAVESKILT”, the “soluble fraction (log2)” value was -2.41. In the case of “HMTESLVITVDPALHGLRLDRGLADALPDRSRSEVQRWIKEGRVQLHGAPAKPSLKLAAGDIVTIALPEE”, the “soluble fraction (log2)” value is reported as 0.442. For “HMTESSTYFEKIGTEISQFKSIPKNIDVIIIEKLIYSGIIKKVDNEENSRVYYILTRKGRYFWKRYVLS”, the “soluble fraction (log2)” value was 0.16. With “HMTETFVLNLRQPIAAAPVLPGYRVARTDEQTLEVEVSKDQNLNEIFTALSALGVEVLSMRNK” the “soluble fraction (log2)” value was -0.0438. In the case of “HMTFAEADAQYEVIKQQYLAGALDEEQFDEQLHRLMVLDDGGLWWAKSRENGSWHYYDPDREDWIAATP”, the “soluble fraction (log2)” value is reported as -0.394. With “HMTFEAKKGYINADMSVNVRETASTSATVIITLNPNTEVKVVGEENDFYKIEYKEYKGYVAKRLISDSQVQ” the “soluble fraction (log2)” value was -0.747. With “HMTFPTEAKLTGDKVFVRSGPSTQSQRLTNLAINSVVTVLAREMGDMQYPWYKVRYSDGEGWVYGQYVEAI” the “soluble fraction (log2)” value was -1.08. In the case of “HMTFTQFAESHGVIIKSLKASDKIQRGPTVAHPKSDNGAWLWDGNRGGVMAWDGDGQWYWFK”, the “soluble fraction (log2)” value is reported as -1.73. With “HMTGEERRMNTADLYRRRGMELFKRKIYVDAIDSLKVSLEYEDNATTRYYLDLATKRYQDLKIS” the “soluble fraction (log2)” value was -2.13. In the case of “HMTGETWAERSRALAAAGLIVMGQEAKNKIEDLPSLSPLIEAAAASETRLLTGQIIDELLAFV”, the “soluble fraction (log2)” value is reported as -0.589. With “HMTGIELLSHREHQVYDLLTQGRTVTEIGAQLNLAPNTVSTYRARILEKTGTKNDVELALYAQRH” the “soluble fraction (log2)” value was -0.22. With “HMTGKASEIAALLEQRIAAGDYPAGSKLPSERELAASFHVSRNTIRDAIALLAARKIVSTKWGAGTVVLG” the “soluble fraction (log2)” value was -0.967. In the case of “HMTGLRETIPAALDGERLDRVVALLGDVSRSRASAALEAERVTLDGEVVTLRSHRVREGEELTVAGFE”, the “soluble fraction (log2)” value is reported as 0.417. For “HMTGLSAQILAKLRDNHGVLPVSDKSDPAVISNLFGVSKGNFKKAIGGLYKEGQIVIHADRIEL”, the “soluble fraction (log2)” value was -0.0972. In the case of “HMTGLSFEEKDLLGNALKLLDETERRIVILHATSGLKHREIAKQLDIPLPTVLSKYTRAIKKLKKHME”, the “soluble fraction (log2)” value is reported as -1.14. In the case of “HMTGPSYTTRRVEAAETMMEFLRTFPQAAPFIGDLYVKAQDWPLGEEIGDRLKKMLPPQLQE”, the “soluble fraction (log2)” value is reported as -0.698. With “HMTGQVASMVERLAQRLKDQPQDAEGWAMLARSYSVLGRHPEALQAYEKALALRKDDANLLADYADSLA” the “soluble fraction (log2)” value was -0.23. In the case of “HMTGRHEEAIQELKRTLELHPQKPKIFLLLGVSYLRLNNLKKAVEAFNTVLLLQPKNQKALTMLKEIKKR”, the “soluble fraction (log2)” value is reported as -0.178. For “HMTGSLLVEVQGRPDADRLLGQALVDAGLTARPAGGALIEVEVRDETTPDVVRDLTVDLGLGLVRMQERH”, the “soluble fraction (log2)” value was -0.548. For “HMTGSLRIKHKTYYMLFSWKDESGQWRQKSESTGIPERGGKRKAQEMLNTRLEELQLQSTASL”, the “soluble fraction (log2)” value was -3.87. In the case of “HMTGSLRVTSSPSGAEIYVDEIYRGYTPLTIGSLSTGRHEVRLHLSGYQDYTRTVEIESGSQSSFSVTLT”, the “soluble fraction (log2)” value is reported as -1.46. With “HMTGSTSVAQVSTPSGSLNLRAYASTSARVLLQIPEYAFVTVYNRGATWSYVSYNGVSGYVMSVYLSFGG” the “soluble fraction (log2)” value was -2.31. In the case of “HMTGTVKVNSLNVYKSASLDSEVKDTLVLNTKVTIAENGQVTDGIYVWGRLQSGEGYVQMNNLTL”, the “soluble fraction (log2)” value is reported as -0.418. For “HMTHRRLELTLDAIDERLDRALTAAVPELSRMQWQRLIREGLVTVDGERARPSYRIQGGETLVALVPEV”, the “soluble fraction (log2)” value was -0.448. For “HMTIAEGLIFRFTEPFKPIDQYTYYIMGDNKVEQIPNFKTLEVMLAQRNQNYLSVRVIEKSQLDDILKEF”, the “soluble fraction (log2)” value was -4.16. In the case of “HMTIDETKKQQVKDGLKDIPGVTVEFVGDKAVLKGAVTDANRVKIMQIVMAAKVLSDASGLTSK”, the “soluble fraction (log2)” value is reported as -0.422. In the case of “HMTIDTSNDLLNQITEATSKGPISILELKDQLNVNASDIEGELRTLIDQHLVFLKDGMLQVIPFD”, the “soluble fraction (log2)” value is reported as 0.797. In the case of “HMTIEEMAIENINFSTQLLYKAMKYNGVNTVGDLLEKARSKKDLLTMAYIGNKEAEEIIEKLSELGITI”, the “soluble fraction (log2)” value is reported as -1.63. With “HMTIFGWQQDETGKWYRNADGTFYENGWKEIDGAQYYFDENGYVTTGWLELDGKDYYFDEEGKYDSTKVR” the “soluble fraction (log2)” value was -0.445. In the case of “HMTIGPALAIGGNKVEMTQQGKIQVTNPQGKIKTLSQDEFKKQLVKNADKIEAGQDFEFKKD”, the “soluble fraction (log2)” value is reported as 0.275. In the case of “HMTIKLFPNPSTDFIRVSELSAKENYKIYTILGSEIKRGSVSNNETIDIRNLNSGVYLLKFDNGTTKKIVK”, the “soluble fraction (log2)” value is reported as -1. For “HMTIKTAFPAEDLAKPDNFKSLLYYFGLLTIRGTKWGSTLLAIPNLTVREQLYSYLVEAYRSADL”, the “soluble fraction (log2)” value was 0.331. In the case of “HMTILKEGMSGPEVERLQDALKRHGFDPGRVDGQFGPGTEAAILAFQKSEGLRADGVAGPKTQQALGLE”, the “soluble fraction (log2)” value is reported as 0.121. With “HMTIRLKELRKQKGNTQAEVAKILGTNQSQYGKYENERTQLSLDNAKILSDYFGVSVPYLLGLDDNP” the “soluble fraction (log2)” value was -0.361. In the case of “HMTISDTAYQAFLEQLGVGMVVEHKRFGEGVITGMPKGKIRITFEEGTKSFQARALAESGMLK”, the “soluble fraction (log2)” value is reported as -0.875. In the case of “HMTISIAEQIFEQLEREILSGAYPRGELLTETKLSEKLGVSRTPIREALRRLDQEHIIKMTTKGAFVLGI”, the “soluble fraction (log2)” value is reported as -2.4. In the case of “HMTITIGNSDGGYMKMGADGFEVRFSGSDGGNHYAKMYYNNDGWARLTLGSYGEEKARIDSDGMIQTR”, the “soluble fraction (log2)” value is reported as 0.108. With “HMTKEAIAQKLRIARQESGLTQKDVSAKIGRPQQTIASWEVGRSQPDADTLYSLLLLYKVSPNTFFEYD” the “soluble fraction (log2)” value was -1.18. With “HMTKEEIVVNWLPRYTKRNLEDFGEYILLTNFNKYVEIFAEKFNVPILGRDANMISASAEGITIIN” the “soluble fraction (log2)” value was -0.409. In the case of “HMTKEEREKREKYEKLMKKAEELTAAKNHREVINVLGQAKAYATAAQLKEIEEKIKAATSEMNK”, the “soluble fraction (log2)” value is reported as 0.326. With “HMTKEGVNISITADGVQLSTESPNRVSIFNVNGTKVWEGIAPANVSLQKGVYILQTANGNTKFV” the “soluble fraction (log2)” value was 0.597. With “HMTKLLITNYERNVLINSYLLKNTPELDDIRRLLVHNKHISENDVSTEMARRIKKHKADWLRVT” the “soluble fraction (log2)” value was -3.4. For “HMTKLTPLEVNLYAKKLANDPEFGSKHIEPGESFSQAEERLRVQLSQQEYVQKYSKYLKKLKASA”, the “soluble fraction (log2)” value was -0.198. In the case of “HMTKPAEVRIDELMNAAQTLFLAKGVEATTISEIIASVGVAKGTFYHYFESKQHIVEALKKRYID”, the “soluble fraction (log2)” value is reported as -1.85. In the case of “HMTKQNVVPLMYRMIDTLEQFIKADVPFNIETRLARVERLRETMVSSSVTTSEKFRQVLEAYTIETD”, the “soluble fraction (log2)” value is reported as -1.05. For “HMTKSEWLRESREHLGLSQTDLRNLLNTALNRSYDKSRISRWENSKENIPAEVVKQIESLIATR”, the “soluble fraction (log2)” value was -0.0559. In the case of “HMTKTRTEILEYLKQNWSVTVSASDIKKHLEEKEIKANTTTIYRYLDKLLAEHVIIKYADAGSERAVYQYS”, the “soluble fraction (log2)” value is reported as -2.23. With “HMTKVIEFLVSDEEHGVRADKAFVSHNQKLSRSYFKKLILNGNLYINNKVNLDPSYKLIKGSTVRIILPE” the “soluble fraction (log2)” value was -2.58. In the case of “HMTKVKIDRLFSIVQMLVNRKSVTAKELADYFNVSVRTIYRDIEILSANGIPIYATQGKGGGISILEN”, the “soluble fraction (log2)” value is reported as -1.74.
